Results from US20220177583A1 (University of California, published 2022).

Columns and labels:
[1] = molecular target: T1, mouse CLDN6 fused to GFP, expressed on engineered HEK293T cells (mouse, UniProt Q9Z262 1-219); assay: FACS, 293T clone with mouse CLDN6
T1 construct: whole, on cells; also called HEK293T-CLDN6-mGFP Artificial CLDN6+ (mouse); murine CLDN6; not shown: GFP tag
T1 sequence (looked up): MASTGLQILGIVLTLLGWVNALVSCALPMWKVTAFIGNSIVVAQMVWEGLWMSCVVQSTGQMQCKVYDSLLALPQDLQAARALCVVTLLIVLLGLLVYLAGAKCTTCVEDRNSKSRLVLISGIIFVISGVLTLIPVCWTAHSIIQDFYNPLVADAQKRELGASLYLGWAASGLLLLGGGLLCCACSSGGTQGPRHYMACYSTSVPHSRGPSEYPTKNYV

[2] = molecular target: T2, human CLDN6, endogenously expressed on cancer cell lines (human, UniProt P56747 1-220); assay: FACS, ARK2 cells, 1.5 ug Ab
T2 construct: also called Endogenous CLDN6+; CLDN6 on ARK2, OVCA429, UMUC4 cells
T2 sequence: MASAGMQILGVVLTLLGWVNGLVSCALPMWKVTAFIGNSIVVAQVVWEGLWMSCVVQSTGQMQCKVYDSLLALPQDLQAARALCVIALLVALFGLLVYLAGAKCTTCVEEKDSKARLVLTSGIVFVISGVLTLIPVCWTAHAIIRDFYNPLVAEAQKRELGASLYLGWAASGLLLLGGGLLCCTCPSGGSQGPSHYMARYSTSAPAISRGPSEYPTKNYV

[3] = molecular target: T2, human CLDN6, endogenously expressed on …; assay: FACS, ARK2 cells, 0.3 ug Ab
[4] = molecular target: T2, human CLDN6, endogenously expressed on …; assay: FACS, OVCA429 cells, 1.5 ug Ab

B1: AB3-2 (antibody, V domains shown)
VH: EVQLLESGGGLVQPGGSMRLSCAASGFTFSNYWMNWVRQAPGKGLEWVAQIRLKSDNYATHYADSVKGRFTISRDDSKNTVYLQMNSLRAEDTGVYYCNDGPPSGCWGQGTLLTVSS
VL: DIQMTQSPSSLSASVGDRVTITCRISENIYSYLAWYQQKPGKAPKLLIYNAKILVEGVPSRFSGSGSGTDFTLTISSLQPEDFATYYCQHHYTVPWTFGQGTKLEIK
notes: Humanized; also called humanized AB 3-2
[1]
  FACS signal: 31700
[2]
  FACS signal: 33600
[3]
  FACS signal: 14700
[4]
  FACS signal: 85900

B2: AB3-5 (antibody, V domains shown)
VH: EVQLLESGGGLVQPGGSMRLSCAASGFTFSNYWMNWVRQAPGKGLEWVAQIRLKSDNYATHYADSVKGRFTISRDDSKNTVYLQMNSLRAEDTGVYYCNDGPPSGYWGQGTLLTVSS
VL: DIQMTQSPSSLSASVGDRVTITCRISENIYSYLAWYQQKPGKAPKLLVYNAKILVEGVPSRFSGSGSGTDFTLTISSLQPEDFGTYYCQHHYTVPWTFGQGTKLEIK
notes: Humanized; also called humanized AB 3-5
[1]
  FACS signal: 783
[2]
  FACS signal: 2910
[3]
  FACS signal: 1280
[4]
  FACS signal: 2950

B3: AB1-Chim (antibody, V domains shown)
VH: QVQLQQSAAELARPGASVKMSCKASGYTFTTYTMHWVKQRPGQGLEWIGFINPSSGYTDYNQKFKDRTTLTADKSSSTVYMQLSSLTSEDSAVYYCANGDYYVAYWGQGTLVTVSA
VL: QIVLTQSPAIMSASLGERVTMTCTASSSVSSTYFHWYQQKPGSSPKLWIYSTSNLASGVPRRFSGSASGTSYSLTISSMEAEDAATYYCHQYHRSPLTFGAGTKLELK
notes: Parental antibody prior to humanization ('chim'); also called pre-humanized form of AB1
[1]
  FACS signal: 514000
[2]
  FACS signal: 51900
[3]
  FACS signal: 58800
[4]
  FACS signal: 177000

B4: AB1-7 (antibody, V domains shown)
VH: QVQLVQSGAEVKKPGASVKMSCKASGYTFTTYTMHWVRQAPGQGLEWIGFINPSSGYTDYAQKFQGRVTLTADTSTSTVYMELSSLRSEDTAVYYCANGDYYVAYWGQGTLVTVSS
VL: DIQLTQSPSSLSASVGDRVTMTCTASSSVSSTYFHWYQQKPGKAPKLLIYSTSNLASGVPSRFSGSGSGTDYTLTISSMQPEDAATYYCHQYHRSPLTFGQGTKLEIK
notes: Humanized; also called humanized AB 1-7
[1]
  FACS signal: 99700
[2]
  FACS signal: 11200
[3]
  FACS signal: 4440
[4]
  FACS signal: 44700

B5: AB1-3 (antibody, V domains shown)
VH: QVQLVQSGAEVKKPGASVKVSCKASGYTFTTYTMHWVRQAPGQGLEWMGFINPSSGYTDYAQKFQGRVTMTADTSTSTVYMELSSLRSEDTAVYYCANGDYYVAYWGQGTLVTVSS
VL: DIQMTQSPSSLSASVGDRVTITCTASSSVSSTYFHWYQQKPGKAPKLLIYSTSNLASGVPSRFSGSGSGTDYTLTISSLQPEDFATYYCHQYHRSPLTFGQGTKLEIK
notes: Humanized; also called humanized AB 1-3
[1]
  FACS signal: 89300
[2]
  FACS signal: 10800
[3]
  FACS signal: 2830
[4]
  FACS signal: 27500

B6: AB1-4 (antibody, V domains shown)
VH: QVQLVQSGAEVKKPGASVKVSCKASGYTFTTYTMHWVRQAPGQGLEWMGFINPSSGYTDYAQKFQGRVTMTADTSTSTVYMELSSLRSEDTAVYYCANGDYYVAYWGQGTLVTVSS
VL: DIQLTQSPSSLSASVGDRVTMTCTASSSVSSTYFHWYQQKPGKAPKLLIYSTSNLASGVPSRFSGSGSGTDYTLTISSMQPEDAATYYCHQYHRSPLTFGQGTKLEIK
notes: Humanized; also called humanized AB 1-4
[1]
  FACS signal: 75900
[2]
  FACS signal: 10000
[3]
  FACS signal: 3640
[4]
  FACS signal: 34600

B7: AB1-5 (antibody, V domains shown)
VH: QVQLVQSGAEVKKPGASVKVSCKASGYTFTTYTMHWVRQAPGQGLEWMGFINPSSGYTDYAQKFQGRVTMTADTSTSTVYMELSSLRSEDTAVYYCANGDYYVAYWGQGTLVTVSS
VL: DIQLTQSPSSLSASVGDRVTMTCTASSSVSSTYFHWYQQKPGKAPKLWIYSTSNLASGVPSRFSGSGSGTDYTLTISSMQPEDAATYYCHQYHRSPLTFGQGTKLEIK
notes: Humanized; also called humanized AB 1-5
[1]
  FACS signal: 128000
[2]
  FACS signal: 22400
[3]
  FACS signal: 7490
[4]
  FACS signal: 54300

B8: AB1-6 (antibody, V domains shown)
VH: QVQLVQSGAEVKKPGASVKMSCKASGYTFTTYTMHWVRQAPGQGLEWIGFINPSSGYTDYAQKFQGRVTLTADTSTSTVYMELSSLRSEDTAVYYCANGDYYVAYWGQGTLVTVSS
VL: DIQMTQSPSSLSASVGDRVTITCTASSSVSSTYFHWYQQKPGKAPKLLIYSTSNLASGVPSRFSGSGSGTDYTLTISSLQPEDFATYYCHQYHRSPLTFGQGTKLEIK
notes: Humanized; also called humanized AB 1-6
[1]
  FACS signal: 77600
[2]
  FACS signal: 7740
[3]
  FACS signal: 2820
[4]
  FACS signal: 29900

B9: AB1-8 (antibody, V domains shown)
VH: QVQLVQSGAEVKKPGASVKMSCKASGYTFTTYTMHWVRQAPGQGLEWIGFINPSSGYTDYAQKFQGRVTLTADTSTSTVYMELSSLRSEDTAVYYCANGDYYVAYWGQGTLVTVSS
VL: DIQLTQSPSSLSASVGDRVTMTCTASSSVSSTYFHWYQQKPGKAPKLWIYSTSNLASGVPSRFSGSGSGTDYTLTISSMQPEDAATYYCHQYHRSPLTFGQGTKLEIK
notes: Humanized; also called humanized AB 1-8
[1]
  FACS signal: 122000
[2]
  FACS signal: 17600
[3]
  FACS signal: 5810
[4]
  FACS signal: 66000

B10: AB3-chim (antibody, V domains shown)
VH: EVKLEESGGGLVQPGGSMKLSCVASGFTFSNYWMNWVRQSPEKGLEWVAQIRLKSDNYATHYAESVKGRFTISRDDSKRSVYLQMNNLRAEDTGTYYCNDGPPSGCWGQGTTLIVSS
VL: DIQMTQSPASLSASVGETVTITCRISENIYSYLAWYQQKQGKSPQLLVYNAKILVEGVPSRFSGSGSGTQFSLKINSLQPEDFGNYYCQHHYTVPWTFGGGTKLEIK
notes: Parental antibody prior to humanization ('chim'); also called pre-humanized form of AB3
[1]
  FACS signal: 67900
[2]
  FACS signal: 29100
[3]
  FACS signal: 17100
[4]
  FACS signal: 138000

B11: AB3-3 (antibody, V domains shown)
VH: EVQLLESGGGLVQPGGSMRLSCAASGFTFSNYWMNWVRQAPGKGLEWVAQIRLKSDNYATHYADSVKGRFTISRDDSKNTVYLQMNSLRAEDTGVYYCNDGPPSGCWGQGTLLTVSS
VL: DIQMTQSPSSLSASVGDRVTITCRISENIYSYLAWYQQKPGKAPKLLVYNAKILVEGVPSRFSGSGSGTDFTLTISSLQPEDFGTYYCQHHYTVPWTFGQGTKLEIK
notes: Humanized; also called humanized AB 3-3
[1]
  FACS signal: 23000
[2]
  FACS signal: 54900
[3]
  FACS signal: 1160
[4]
  FACS signal: 88700

B12: AB3-4 (antibody, V domains shown)
VH: EVQLLESGGGLVQPGGSMRLSCAASGFTFSNYWMNWVRQAPGKGLEWVAQIRLKSDNYATHYADSVKGRFTISRDDSKNTVYLQMNSLRAEDTGVYYCNDGPPSGYWGQGTLLTVSS
VL: DIQMTQSPSSLSASVGDRVTITCRISENIYSYLAWYQQKPGKAPKLLIYNAKILVEGVPSRFSGSGSGTDFTLTISSLQPEDFATYYCQHHYTVPWTFGQGTKLEIK
notes: Humanized; full-length IgG; also called humanized AB 3-4
[1]
  FACS signal: 1520
[2]
  FACS signal: 1460
[3]
  FACS signal: 1320
[4]
  FACS signal: 2960

B13: AB4-4 (antibody, V domains shown)
VH: QVQLVQSGAEVKKPGASVKMSCKASGYTFTSYTMHWIRQAPGQGLEWIGYINPSSTYTHYAQKFQGRATLTADTSTSTAYMELSSLRSEDTAVYYCSRGELGGFAYWGQGTLVTVSS
VL: DVVMTQSPLSLPVTLGQPASISCRSSQSLVHSDGNTYLNWYQQRPGQSPRLLIYKVSNRFSGVPDRFSGSGSGTDFTLKISRVEAEDVGVYYCSQSTHVPYTFGQGTKLEIK
notes: Humanized; also called humanized AB 4-4
[1]
  FACS signal: 741
[2]
  FACS signal: 1400
[3]
  FACS signal: 1050
[4]
  FACS signal: 1200

B14: AB4-3 (antibody, V domains shown)
VH: QVQLVQSGAEVKKPGASVKVSCKASGYTFTSYTMHWVRQAPGQGLEWMGYINPSSTYTHYAQKFQGRVTMTADTSTSTVYMELSSLRSEDTAVYYCSRGELGGFAYWGQGTLVTVSS
VL: DVVMTQSPLSLPVTLGQPASISCRSSQSLVHSDGNTYLNWYQQRPGQSPRLLIYKVSNRFSGVPDRFSGSGSGTDFTLKISRVEAEDVGVYYCSQSTHVPYTFGQGTKLEIK
notes: Humanized; also called humanized AB 4-3
[1]
  FACS signal: 671
[2]
  FACS signal: 1520
[3]
  FACS signal: 1190
[4]
  FACS signal: 1160

B15: AB18-6 (antibody, V domains shown)
VH: QVQLVQSGAEVKKPGASVKISCKASGYSFTGYNMNWVRQAPGQGLEWIGNIDPYYGGSTYAQKFQGRATLTVDTSTSTAYMELSSLRSEDTAVYYCARERSGYVFSAMDYWGQGTLVTVSS
VL: DIVMTQSPDSLAVSLGERVTMNCKSSQSVLFSSNQKNYLAWYQQKPGQPPKLLIYWASTRESGVPDRFSGSGSGTDFTLTISSVQAEDVAVYYCHQYLSSRTFGQGTKLEIK
notes: Humanized; also called humanized AB 18-6
[2]
  FACS signal: 1940
[3]
  FACS signal: 1390
[4]
  FACS signal: 6750

B16: AB9-chim (antibody, V domains shown)
VH: EVQLQQSGPELVKPGASVKMSCKASGYRFTDYNMHWVKQSHGKSLEWIGYINPNNGGTNYNQNFKGKATLTVNKSSSTAYMELRSLTSEDSAAYYCARDYLYFFDCWGQGTTLTVSS
VL: DIQMTQSPASQSASLGESVTITCLASQTIGTWLAWYQQKPGKSPQLLIYAAASLADGVPSRFSGSGSGTRFSFKISSLQAEDFVSYYCQQLYSIPRTFGGGTKLEIK
notes: Parental antibody prior to humanization ('chim'); also called pre-humanized form of AB9
[2]
  FACS signal: 4490
[3]
  FACS signal: 3510
[4]
  FACS signal: 3570
